Reference: IntAct's records for PubMed 20696398

B1: Vacuolar protein sorting-associated protein VTA1 (Saccharomyces cerevisiae), Q06263 (parent)
chain: MASNAARVVATAKDFDKVGLGIIGYYLQLYAVELILSEEDRSQEMTALATELLDTIEAFKKEIGGESEAEDSDKSLHVMNTLIHDQEKAKIYMLNFTMSLYNEKLKQLKDGPWDVMLKRSLWCCIDLFSCILHLWKENISETSTNSLQKRIKYCKIYLSKLAKGEIGSSDEKTLDYADFADDSEEIKDEDVDHQTSDLENNNNDKVEGLAPKDQTTSYEPVDEVPEFIDDADSVNEEEQTVDKNEDAITKDEQQVVKKEVDLTRPSAPSEPAAAEHKSYTKDELTKIMDRASKIEQIQKLAKYAISALNYEDLPTAKDELTKALDLLNSI
partner: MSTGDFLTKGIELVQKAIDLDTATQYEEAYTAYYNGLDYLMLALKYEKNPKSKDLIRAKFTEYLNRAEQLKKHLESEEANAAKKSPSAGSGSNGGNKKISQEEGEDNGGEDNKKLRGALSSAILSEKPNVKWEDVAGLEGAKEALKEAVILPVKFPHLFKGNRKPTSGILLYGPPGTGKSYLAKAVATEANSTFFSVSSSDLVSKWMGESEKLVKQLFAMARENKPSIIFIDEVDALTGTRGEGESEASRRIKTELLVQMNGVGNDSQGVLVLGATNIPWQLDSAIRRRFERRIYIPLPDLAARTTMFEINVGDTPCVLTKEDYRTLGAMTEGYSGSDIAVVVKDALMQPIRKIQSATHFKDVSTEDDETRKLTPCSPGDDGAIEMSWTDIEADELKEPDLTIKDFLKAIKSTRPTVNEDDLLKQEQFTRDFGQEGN
B2: Vacuolar protein sorting-associated protein 4 (Saccharomyces cerevisiae), P52917 (parent)
chain: B1 partner
partner: B1 chain

Variants of: B1
Conditions: with vps4_yeast VPS4, P52917

| effect of a mutation on the interaction | Variant |
| --- | --- |
| disrupting interaction | Y303A |
| decreasing interaction | T315R |
| decreasing interaction | D312A |
| decreasing interaction | S306R |
| disrupting interaction | A307D |

Variants of: B2
Conditions: with vta1_yeast VTA1, Q06263

| effect of a mutation on the interaction | Variant |
| --- | --- |
| decreasing interaction | H359D |
